These sequences were tested on Saccharomyces cerevisiae (assay: transcriptional activation domain activity (GFP:mCherry ratio, weighted mean of sorted bins, harmonized to initial dataset scale) (arbitrary fluorescence ratio units); higher = stronger transcriptional activation). Conditions: beta-estradiol 1 µM; induction time 4 h.
Method in brief: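 Each value is an activation activity: the read-weighted mean of bin median fluorescence, averaged across barcodes, then mapped linearly to the initial dataset scale. The tiles, fused to an estradiol-inducible synthetic transcription factor, sat at the yeast URA3 locus in GFP-reporter diploids. Cells spent 4 hours at 30 °C in SC with 1 uM beta-estradiol before sorting into 8 GFP:mCherry bins, and tiles below 50 reads were removed.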

First: PPYVVAPPVVCPYSPLIILFYMVTYFFLHCFRGLMGWLQFLALLLQSLMVGIP
Second: RRWTRSKWLLLCTYGMMFCIGLTMLLGCLLTWFRGYLRAEVITVGFKRILIIA
The “transcriptional activation domain activity” value of the first is lower: 28900 for the first, 47500 for the second.

First: LRAYPVPQALQIAGNESVSPCLVRCLRLLTVLADLLYMHRGFFARALNDHPKD
Second: MWTQASVATLPTLPFTGISLSYFPCLFLLFSPDIFIFLFFLLFIYLFIFSFLL
The “transcriptional activation domain activity” value of the first is lower: 46700 for the first, 55900 for the second.

Going from “AVEARFVTPQDPVLIQDDGSRLPPVPLEEAYKLNVLRREVIERAGSVAKAIEG” to “MILTLFALCFFFLDTSSCFLHFISIVSFLISLILCLFFFFFLVASEPFHFIPS”, the “transcriptional activation domain activity” value falls from 63700 to 57900.

First: HGPMFHFSISNWVEGAKLAGHGNPTGHNPELILNNFRTPLGLLTAHLFKTMFP
Second: EAEQEVQQKPAKGKKALAAAKSSAEDAEPEAAPAPKKSALKDGEASAAAPAPS
The “transcriptional activation domain activity” value of the first is higher: 52200 for the first, 21800 for the second.

First: ILRKLGFIVHVQLPYNLMINYLRILGLEDDEVISRKAWNYLNDGLRTNIYVTY
Second: IVNFTLLVLIVPRLSIWCRPHSKRMHGAGVWDSFVLARASIFVSVLGVLCVAL
The “transcriptional activation domain activity” value of the first is higher: 55800 for the first, 54400 for the second.

Compared with “EGEREREREGEEMEEVMREGTNREEKKEEEEEGKRKDKRRKETGNLLLLLVVV”, “DIFGQMKDFTERCHMYLDGNITLPISLHQKLVEIFSHLLCLIGMITRDMKRGW” is lower in “transcriptional activation domain activity” value: 40400 for the first, 32500 for the second.

First: MGSNANKRREDGPKKEQLQKRVLHIRSVARSTKGGKIRSSSAIVVVGNGNGVG
Second: PNWESLFGLMDFVRIRAEKLQWHLFLSLIRFMEAMIVRYMANYDRRTLHNSTE
The “transcriptional activation domain activity” value of the first is lower: 42400 for the first, 44300 for the second.

Compared with “TGEKFGIKRKEQQKPEQTAEETVALAKNDTPSFASVFILAYGIHKTLLLPVRL”, “SQKKHCELCKTAFRFTKLYSPDMPKHLPFHIFVHHMTRYLIRNFLVWLRAALV” is higher in “transcriptional activation domain activity” value: 41500 for the first, 61500 for the second.

Compared with “IYESALQTEHHKQGIGRSIAEAVKNRELSGFDQFQQIISFCLCVLKQLYRRFT”, “FDQDIPQDSSLNTSYISNLPYFGVTPSENFDETWFFDQAIGLGWLDSAQFTLG” is higher in “transcriptional activation domain activity” value: 37600 for the first, 142000 for the second.

Compared with “LNYRKDIDAWHKSLMGTLARGPTLWTFWILSCLDKECFWNWQCYLGYMWPGLF”, “WWLVKVTVSVLWVLDTFDMCLIFHILYWYLIINYGNPLSLANPIWSIILHVLV” is lower in “transcriptional activation domain activity” value: 72100 for the first, 64800 for the second.

Compared with “FLARLESLHRALGLYLWFSYRYPNIIISQALAFHAKSMLEAKIDDLLQKMSFD”, “VLRWGDTNTLPFVHIMMVFIHKMAQYAAAMSYLEQVFPWKLTMVMLNYHLTSC” is higher in “transcriptional activation domain activity” value: 44300 for the first, 68500 for the second.

Compared with “KPKRKERSDKGKKRGPRAKDGTGTKAAENTLVAKAKPAAKGQEKRRGKADDAK”, “KIMSFIIGLGLICPLVLVRDKLTILLTLCYEGLLVGFWFIDHAQALRWYCLFI” is higher in “transcriptional activation domain activity” value: 16700 for the first, 68700 for the second.

First: RKVGFILYVIMHMRINIVFAAFRLAKFNINPNSVYIKIINCVIKYLLKTMDYF
Second: DDEGSTRDRKSHKRRSRDKDDSDEEEDRKRRKRRKERERSKDKEERRSVLTGK
The “transcriptional activation domain activity” value of the first is higher: 44700 for the first, 28900 for the second.

Compared with “MSDDLGASPTQRPLRKSHRKSRKGCLDCRRRRVKCGEERPSCLVCVRRNVRCE”, “AKSNKRRRASAPSSNTFKGSKRSASNASSQSKASNSNRVIKRARRASSASTKK” is lower in “transcriptional activation domain activity” value: 49200 for the first, 20900 for the second.

First: MIIYYIGSIFWCLGNLQVGGFFGFDGIWSYCIFWRNWVRDVFGLSVLIGVVNY
Second: GQSRGTTSGTIATGLCAGLSRGIAESVELQKRIDFALAGYFRYIRWWRLGFMS
The “transcriptional activation domain activity” value of the first is lower: 44900 for the first, 69900 for the second.

Compared with “ENASEPQKQEAEEKPKSTTAASTSVPRSSKPSVEAKPVRKSRRTGAQRRAPSQ”, “SGFPSVGFNFFLFFSMMQPAMFLVSLFFQSLFFLCLNTCVCFFGFNFFFLVHW” is lower in “transcriptional activation domain activity” value: 38800 for the first, 34800 for the second.

Going from “MTLLLLLLLLLFSYNFTYIYLFFLLLSFHLCVSLYTTFTLNFIFLYTSLYILD” to “PIYNLHFAPSNEYWFSFSYLPGQGQCTLDSSTTSIGQTRYFIWSLSLWRRIFL”, the “transcriptional activation domain activity” value falls from 74200 to 70200.

Compared with “PLVVTALCVAPHEFFMKNWVSCFEVGLVKLKEKPYRMIVMNGMMRLIWTYLYR”, “GANADELGHIIVTRRNRFWKIKGIVGGRILSMPELERWTLFVLLMCFRLHIYP” is lower in “transcriptional activation domain activity” value: 52800 for the first, 23900 for the second.

First: MPRKAAAATTEIPAEPRRSSRIKEQPKVEPAPKKAPAKPRGKKAKAAEAEAAP
Second: EPRQTGDSRSQSSGNTGENEEDIAFASGLNGGTFDSMLEALPDDLYFTDFVSP
The “transcriptional activation domain activity” value of the first is lower: 13000 for the first, 88800 for the second.

Going from “SPSSQTTSSTTVVLVFGSDEKRVKEVGDGLKSKLAVKGGGKGTRWSGKYTGVW” to “ILLEVLGKVRGDHTPKRQETSVQGIRRRFRDDLAFLCEYDKGGIACTAIGIEE”, the “transcriptional activation domain activity” value falls from 32000 to 12500.

Going from “MGRLLLLICFNTSGRLPFLLPLLLFFFFLLFFLYPPLHIFSFSFSLSPSNVPP” to “LQKDKFKVELQLLDIRVSDKLLMGIEKAIREFLTQKFVICRRVFVPWVPKVLF”, the “transcriptional activation domain activity” value rises from 35200 to 61500.

First: RTESYDHMEPVGVDPRWDAFGPFHDYLLQAFPLVHSTLSLTKVNTWGLVYVWP
Second: ARAEELGARVSTGRRVVDVRCSSRGEEGSAAVAVCADGSRYAADLVVGADGVH
The “transcriptional activation domain activity” value of the first is lower: 47400 for the first, 51600 for the second.

Going from “LFGPLDFLDFLDFLDFLDFLDFLDFLDFLDLWTFWPWTFWTVGLFGLLDFLTF” to “MPNDWFIYGCIFLECYISYGVYIRVWFLLMDFVLGPISHLSIYFLWIWFILLC”, the “transcriptional activation domain activity” value rises from 46300 to 66900.

First: EKLVMNILEAVRLFHSIFDGLIAKALDEFAHLSRQARTMLSFFVIHIHLGVLH
Second: PLPPSSPHWLVWIHAQDVVTMRMPSRIRPLLQELLEVIISVIQPSLHSAPQSG
The “transcriptional activation domain activity” value of the first is higher: 71300 for the first, 49500 for the second.

Compared with “GPEYEPGRPSEQEVSLTRMLDKVLRRSDAIDKESLCIIAGQRVWHIRLTIHCL”, “MGLNLLVCIILVLHYFSTLLISFYFLLTVHTFRHIFAHSHSPVCMCLIFLTII” is lower in “transcriptional activation domain activity” value: 87900 for the first, 50200 for the second.

Compared with “EAWILHMVVILGVNYLFTFYVWDFSYTDTELWNVTCYWKLGWLLPIPYTLICF”, “IQSGDEGKDRKGREKVEDRSKRSRRRSRSRSKDRSRGKRRRDDHEGTKGGGQA” is lower in “transcriptional activation domain activity” value: 51000 for the first, 41100 for the second.

Going from “NSGDEGDAGAAEVEAPKSKKKRGRAAKEEDDDEETPAPVPKKARGRAKKATKE” to “MFHSIYLVVPSFHPSHALIVSFLFSLLRITLHLLLHFLVLYLLLCILFFWHPE”, the “transcriptional activation domain activity” value rises from 23700 to 43100.

With “LANISLFTSFHQTDINWCGPTRLRWFGYCFCGMFVYYWLPGYFFQILTFFSWA” the “transcriptional activation domain activity” value was 73700.

Source: the supplement of paper PMC12636428
